Source: article doi:10.1101/2021.05.06.443019

Target: ovine rBAT (purified with b^0,+AT) (ovine)
Test: cryo-EM structure

stoichiometry N: 2
Substance: ovine rBAT (purified with b^0,+AT) (from UniProt A0ACI6R3A5 1-685) (natural protein)
